Measured values as given in patent publication US20250002563A1 (UNIVERSITY OF PITTSBURGH OF THE COMMONWEALTH SYSTEM OF …, published 2025).
Changes are numbered by the printed parent chain.

B1: 4P-44 (VHH)
VHH: DVQLVESGGGLVQAGGSLRLSCAASGRTFSRYAAGWFRQAPGKEREFVAVIEWNGDSAYYADSVKGRFTISRDNAKNTVYLQMNRLKPEDTAVYICAVGGNHYSRSKYYTADEYDYWGQGTQVTVSS
B2: 4P-71 (VHH)
VHH: B1 VHH with D1H, Y32F, E52D, D56G, E89G, V98I, S104D, R105P, K107R
B3: 4P-42 (VHH)
VHH: B1 VHH with D1H, N54D, S57N, R105P, S106N
B4: 5p-121 (VHH)
VHH: B1 VHH with E46S, N54D, S57T, A61S, V79L, R105S, T110I
B5: 5p-34 (VHH)
VHH: B1 VHH with D1Q, A23T, A61T, V64A, A75T, V98I, R105P, T110I
B6: 5p-120 (VHH)
VHH: B1 VHH with D1H, N54D, T110N, A111L
B7: 5p-119 (VHH)
VHH: B1 VHH with D1Q, G26R, R31N, D56E, V93I, V98I, T110I
B8: 5p-117 (VHH)
VHH: DVQLVESGGGLVQAGESLRLSCAASGRTFRNFAAGWFRQTPGKDREFVAVIEYNGDSAYYADSVKGRFTISRDNAKNTVYLQMNRLKPGDTAVYICAIGGNHYDPSKYYIADEYDYWGQGTQVTVSS
B9: 5p-59 (VHH)
VHH: QVQLVESGGGLVQAGGSLRLSCAVSGRTISTFGMAWFRQAPGKVREFVATITRDEDLTLYADSVKGRFTISRDTAKNTVFLQMNSLKIEDTALYYCAVRRDDSWGYSRQSIEYDYWGQGTQVTVSS
B10: 5p-25 (VHH)
VHH: HVQLVESGGGLVQAGGSLRLSCAASGHISSRYAMAWFRQGPGKERDFVAGMSSGASTFYAESVKGRFTLSRDNAKNAMYLQMNSLKPEDTAVYYCAADSSPLRYGLSYSSNRYDYWGQGTQVTVSS
B11: 4P-92 (VHH)
VHH: QVQLVESGGGLVQTGGSLRLSCAVSGYTFSTFPTAWFRQAPGKEREFVAGIRWNGGSRDYTEYADFVKGRFTISRDNAKNMVYLQMISLKPEDTALYYCAASHGVIDGTSANDYRYWGQGTQVTVSS
B12: 5p-1 (VHH)
VHH: QVQLVESGGGLVQAGGSLRLSCAVSGRTGNRWPMGWFRQAPGKEREFVATISWSDSRTYYADSVKGRFTISRDNAKNTVFLQMASLKPEDTAVYYCAAAHARVYGANWSSSNRDDYDSWGQGTQVTVSS
B13: 4P-1 (VHH)
VHH: B12 VHH with Q1D, V24A, N30S, W32Y, D114Y
B14: 5p-5 (VHH)
VHH: B12 VHH with H100T
B15: 5p-2 (VHH)
VHH: B12 VHH with N30S, S71A, A101G, S111T, D114Y

target: RBDSARS-CoV (SARS-CoV S protein residues 318-510, C-terminal His-tag) (SARS-CoV, UniProt P59594 318-510); assay: ELISA

First: B1
Second: B2
The IC50 of the first is higher: 100 to 1000 nM for the first, 10 to 100 nM for the second.

B3 and B4 cannot be ordered by IC50: less than 10 nM for the first, less than 10 nM for the second.

B5 and B6 cannot be ordered by IC50: less than 10 nM for the first, less than 10 nM for the second.

B7 and B8 cannot be ordered by IC50: less than 10 nM for the first, less than 10 nM for the second.

Compared with B9, B10 is lower in IC50: greater than 8000 nM for the first, less than 10 nM for the second.

Compared with B11, B12 is lower in IC50: 1000 to 8000 nM for the first, 100 to 1000 nM for the second.

First: B13
Second: B14
The IC50 of the first is higher: 1000 to 8000 nM for the first, 10 to 100 nM for the second.

For B15, the IC50 was 10 to 100 nM.

target: RBDSARS-CoV-2 (SARS-CoV-2 S protein residues 319-539, C-terminal His-tag) (SARS-CoV-2, UniProt P0DTC2 319-539); assay: ELISA

B1 and B2 cannot be ordered by IC50: less than 10 nM for the first, less than 10 nM for the second.

B3 and B4 cannot be ordered by IC50: less than 10 nM for the first, less than 10 nM for the second.

B5 and B6 cannot be ordered by IC50: less than 10 nM for the first, less than 10 nM for the second.

B7 and B8 cannot be ordered by IC50: less than 10 nM for the first, less than 10 nM for the second.

B9 and B10 cannot be ordered by IC50: less than 10 nM for the first, less than 10 nM for the second.

First: B11
Second: B12
The IC50 of the first is lower: less than 10 nM for the first, 10 to 100 nM for the second. The first is the more potent here.

B13 and B14 fall in the same range of IC50: 10 to 100 nM for the first, 10 to 100 nM for the second.

For B15, the IC50 was 10 to 100 nM.
